Assay results published in patent US20200000897A1 (published 2020).

Target: T1, HLA-A*03:01 (human)
T1 construct: MHC class I monomer first loaded with a UV-sensitive peptide that is cleaved by UV irradiation and exchanged for the test peptide; captured on streptavidin plates; also called peptide-receptive MHC molecules
Assay: UV-ligand exchange, anti-b2m ELISA; peptide exchange yield grade (>10% +, >20% ++, >50% +++, >75% ++++)
From the text: Candidate peptides for T cell based therapies according to the present invention were further tested for their MHC binding capacity (affinity). The individual peptide-MHC complexes were produced by UV-ligand exchange, where a UV-sensitive peptide is cleaved upon UV-irradiation and exchanged with the peptide of interest as analyzed. Only peptide candidates that can effectively bind and stabilize the peptide-receptive MHC molecules prevent dissociation of the MHC complexes. To determine the yield of the exchange reaction, an ELISA was performed based on the detection of the light chain (β2m) of stabilized MHC complexes. The assay was performed as generally described in Rodenko et al. (Rodenko et al., 2006)
96 well MAXISorp plates (NUNC) were coated over night with 2 ug/ml streptavidin in PBS at room temperature, washed 4× and blocked forl h at 37° C. in 2% BSA containing blocking buffer. Refolded HLA-A*02:01/MLA-001 monomers served as standards, covering the range of 15-500 ng/ml. Peptide-MHC monomers of the UV-exchange reaction were diluted 100-fold in blocking buffer. Samples were incubated for 1 h at 37° C., washed four times, incubated with 2 ug/ml HRP conjugated anti-β2m for 1 h at 37° C., washed again and detected with TMB solution that is stopped with […]. Absorption was measured at 450 nm.

| peptide exchange yield [%] | Binder |
| --- | --- |
| > 75 | RALGVPFVPR |
| > 75 | RVDSKQRYY |
| > 75 | TVYVAMCHKF |
| 50 to 75 | VVYDTMIEK |
| > 75 | RLAQYTIER |
| > 75 | RMGFRTLSK |
| 50 to 75 | VSLSKMLKK |
| > 75 | RLLPGKVVWK |
| > 75 | SLFEGIYTIK |
| 20 to 50 | TIASVLVAR |
| 20 to 50 | TVFVELWLK |
| 20 to 50 | PLAMLAATCNK |
| > 75 | RLYDAYVNR |
| 10 to 20 | SPRVYWLGLNDR |
| 10 to 20 | SLRGSFPILY |
| > 75 | MLYYPSVSR |
| 50 to 75 | SLLKPSGDYFK |
| 50 to 75 | SLLEADPFLK |

| peptide exchange yield [%] | Binder |
| --- | --- |
| 10 to 20 | VSIRNTLLY |
| > 75 | RLRDYISSLK |
| 50 to 75 | RVYPHKTLY |
| 20 to 50 | TRMQKAGFLYY |
| 20 to 50 | MKTLPAMLGTGK |
| 20 to 50 | VSLGIAVSK |
| 50 to 75 | RLYAPVVNISRL |
| 50 to 75 | RIYVYVKRK |
| 20 to 50 | VAFFVLPSK |
| > 75 | TLLSYELAFK |
| 50 to 75 | VIGTTSSPK |
| > 75 | VVYDTMIEKF |
| > 75 | SLLTVSGAWAK |
| 50 to 75 | VSYNRLIK |
| 50 to 75 | RIGNKGIYK |
| 50 to 75 | TVFLSKYLKK |
| > 75 | SIYKKAVYR |
| 20 to 50 | QVLDLQSVK |

Further lines, the binder ahead of its results:

| Binder | peptide exchange yield [%] |
| --- | --- |
| LLRSGLTLR | 20 to 50 |
| KINPTASLK | 50 to 75 |
| KVASFTVIGY | 50 to 75 |
| KTLGKIAEK | > 75 |
| ASLAAAVLAK | 50 to 75 |
| AVAFFVLPSK | > 75 |
| LLLAAVTVK | 20 to 50 |
| LIGPLLICK | > 75 |
| AVVQGLVEK | 20 to 50 |
| GGLSSQGVYY | 20 to 50 |
| GLAAGALLLY | 20 to 50 |
| ASSFRPLLSK | 50 to 75 |
| KIICGVHYLY | 10 to 20 |
| KVFAEHKISY | 50 to 75 |
| ATSPPASVR | > 75 |
| ALLGVIIAKK | > 75 |

| Binder | peptide exchange yield [%] |
| --- | --- |
| ALARVSSVKL | 50 to 75 |
| ATIGLSVSK | > 75 |
| KLQNLPTLLY | 50 to 75 |
| ALSRMSQQY | > 75 |
| KVLTRNIEY | 50 to 75 |
| IIFIPATILLK | > 75 |
| LASSPAGHK | 50 to 75 |
| ILNLNKMVK | 50 to 75 |
| ATNGKVLKK | > 75 |
| KIKKPLSYR | > 75 |
| AATIISSAK | 10 to 20 |
| KMMKRLMTVEK | > 75 |
| ATNGKVLKKR | > 75 |
| KLFMPRPK | 50 to 75 |
| AILHPFRAK | 50 to 75 |
